B1: Mitogen-activated protein kinase kinase kinase 2 (Homo sapiens), Q9Y2U5 (parent)
chain: MDDQQALNSIMQDLAVLHKASRPALSLQETRKAKSSSPKKQNDVRVKFEHRGEKRILQFPRPVKLEDLRSKAKIAFGQSMDLHYTNNELVIPLTTQDDLDKAVELLDRSIHMKSLKILLVINGSTQATNLEPLPSLEDLDNTVFGAERKKRLSIIGPTSRDRSSPPPGYIPDELHQVARNGSFTSINSEGEFIPESMDQMLDPLSLSSPENSGSGSCPSLDSPLDGESYPKSRMPRAQSYPDNHQEFSDYDNPIFEKFGKGGTYPRRYHVSYHHQEYNDGRKTFPRARRTQGTSLRSPVSFSPTDHSLSTSSGSSIFTPEYDDSRIRRRGSDIDNPTLTVMDISPPSRSPRAPTNWRLGKLLGQGAFGRVYLCYDVDTGRELAVKQVQFDPDSPETSKEVNALECEIQLLKNLLHERIVQYYGCLRDPQEKTLSIFMEYMPGGSIKDQLKAYGALTENVTRKYTRQILEGVHYLHSNMIVHRDIKGANILRDSTGNVKLGDFGASKRLQTICLSGTGMKSVTGTPYWMSPEVISGEGYGRKADIWSVACTVVEMLTEKPPWAEFEAMAAIFKIATQPTNPKLPPHVSDYTRDFLKRIFVEAKLRPSADELLRHMFVHYH

Variants of: B1
Details: with chip_human STUB1, Q9UNE7
chip_human STUB1, Q9UNE7, sequence (Q9UNE7 whole entry): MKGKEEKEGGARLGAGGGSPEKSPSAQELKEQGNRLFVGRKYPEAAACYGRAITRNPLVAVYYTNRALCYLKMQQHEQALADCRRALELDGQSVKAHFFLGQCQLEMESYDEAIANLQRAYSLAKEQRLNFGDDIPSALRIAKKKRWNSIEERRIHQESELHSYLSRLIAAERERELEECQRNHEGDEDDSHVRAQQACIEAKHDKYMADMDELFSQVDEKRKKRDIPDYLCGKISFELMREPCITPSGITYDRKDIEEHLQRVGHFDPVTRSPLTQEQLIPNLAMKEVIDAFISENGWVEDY

| effect of a mutation on the interaction | Variant |
| --- | --- |
| disrupting interaction | K385M |

Variants of: B1
Details: with chip_human STUB1, Q9UNE7
Remark: another data set of the same source

| effect of a mutation on the interaction | Variant |
| --- | --- |
| increasing interaction | K385M |

Variants of: B1
Details: with ubc_human UBC

| effect of a mutation on the interaction | Variant |
| --- | --- |
| disrupting interaction | K385M |
